Test results: article doi:10.1101/2022.05.04.490607 (bioRxiv, 2022)

T1: recombinant 14-3-3ζ, P63104
T1 chain: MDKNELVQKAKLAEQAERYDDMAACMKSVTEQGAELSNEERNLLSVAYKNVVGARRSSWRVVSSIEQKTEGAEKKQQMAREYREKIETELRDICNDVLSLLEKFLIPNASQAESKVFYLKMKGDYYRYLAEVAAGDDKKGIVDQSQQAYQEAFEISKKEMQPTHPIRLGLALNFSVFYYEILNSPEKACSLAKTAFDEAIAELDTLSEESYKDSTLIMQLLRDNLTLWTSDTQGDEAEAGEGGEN


Tests used:
[1] = target: T1, recombinant 14-3-3ζ, P63104; test: cryo-EM structure; conditions: remark: other sources report otherwise
[2] = target: HSP90 beta (full-length human, N-terminal HA tag) (human, UniProt P08238 1-724, phosphorylated (sites in Table S1)); test: SEC-MALS
Sequence of HSP90 beta (full-length human, N-terminal HA tag) (P08238 whole entry): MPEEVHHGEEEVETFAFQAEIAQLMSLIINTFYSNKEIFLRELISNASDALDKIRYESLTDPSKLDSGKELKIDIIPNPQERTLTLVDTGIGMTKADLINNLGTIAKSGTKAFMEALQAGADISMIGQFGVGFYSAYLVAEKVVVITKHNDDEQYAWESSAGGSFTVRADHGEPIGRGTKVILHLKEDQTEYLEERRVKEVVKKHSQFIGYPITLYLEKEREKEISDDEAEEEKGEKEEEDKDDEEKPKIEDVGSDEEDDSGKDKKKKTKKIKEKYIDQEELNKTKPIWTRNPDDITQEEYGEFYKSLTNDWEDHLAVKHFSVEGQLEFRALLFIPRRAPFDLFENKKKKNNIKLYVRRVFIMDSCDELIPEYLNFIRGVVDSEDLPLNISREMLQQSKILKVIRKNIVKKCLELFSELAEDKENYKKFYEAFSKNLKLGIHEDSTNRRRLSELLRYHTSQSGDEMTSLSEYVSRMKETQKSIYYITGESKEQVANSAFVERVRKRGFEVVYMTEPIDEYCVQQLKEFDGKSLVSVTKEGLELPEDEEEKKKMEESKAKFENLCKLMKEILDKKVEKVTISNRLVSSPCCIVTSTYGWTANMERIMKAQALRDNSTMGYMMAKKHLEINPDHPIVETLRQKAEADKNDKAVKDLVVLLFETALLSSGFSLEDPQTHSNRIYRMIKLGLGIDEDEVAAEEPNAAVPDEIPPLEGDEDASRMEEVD

stoichiometry N [1]	binding result [2]	Binder
2		recombinant 14-3-3ζ, P63104 1-245 (natural protein) MDKNELVQKAKLAEQAERYDDMAACMKSVTEQGAELSNEERNLLSVAYKNVVGARRSSWRVVSSIEQKTEGAEKKQQMAREYREKIETELRDICNDVLSLLEKFLIPNASQAESKVFYLKMKGDYYRYLAEVAAGDDKKGIVDQSQQAYQEAFEISKKEMQPTHPIRLGLALNFSVFYYEILNSPEKACSLAKTAFDEAIAELDTLSEESYKDSTLIMQLLRDNLTLWTSDTQGDEAEAGEGGEN
	binds	CDC37 (full-length human, C-terminal Myc-DDK tag) (natural protein, phosphoserine at S13 (seen in the cryo-EM map; further sites in Table S1)) MVDYSVWDHIEVSDDEDETHPNIDTASLFRWRHQARVERMEQFQKEKEELDRGCRECKRKVAECQRKLKELEVAEGGKAELERLQAEAQQLRKEERSWEQKLEEMRKKEKSMPWNVDTLSKDGFSKSMVNTKPEKTEEDSEEVREQKHKTFVEKYEKQIKHFGMLRRWDDSQKYLSDNVHLVCEETANYLVIWCIDLEVEEKCALMEQVAHQTIVMQFILELAKSLKVDPRACFRQFFTKIKTADRQYMEGFNDELEAFKERVRGRAKLRIEKAMKEYEEEERKKRLGPGGLDPVEVYESLPEELQKCFDVKDVQMLQDAISKMDPTDAKYHMQRCIDSGLWVPNSKASEAKEGEEAGPGDPLLEAVPKTGDEKDVSV
